The supplement of paper PMC6757056
± gives the standard deviation of the averaged measurements.

B1: library; a variant is named by its letters at N, in order (parent)
chain: GCUGUCACCGAGAAACUGUGAAGUAUAUCUUAAACCUGGGCACUUAAAAGAUAUAUGGAGUUAGUAGUGCAACCUGCUCGGUCUGAUGAGUCCNNNNNNGGACGAAACAGC

Tests used:
cyclic di-GMP [1] = variants of: B1; assay: normalized RNA/DNA level without ligand (relative to sTRSVctl = 100) (log10 (% of sTRSVctl)); HEK293T; ligand: cyclic di-GMP (c-di-GMP-II aptamer); higher = less ribozyme self-cleavage, higher mRNA level; settings: reporter: mCherry (pCS4076), ligand present: no
Method in brief: (§1)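 Total RNA, extracted with EDTA 72 h after HEK293T cells were transfected with 4 µg per 6-well well of reporter-linked ribozyme switch library plasmids, was reverse-transcribed, amplified, barcoded and sequenced. Ligand, if used, was added 1 h before transfection. RNA level was derived from RNA reads divided by DNA reads and normalized to a spiked-in non-cleaving sequence or to the top sequences. This was multiplied by 100 and log10-transformed, with the top set of 25 sequences and a ≥100 DNA read minimum.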

cyclic di-GMP [2] = variants of: B1; assay: normalized RNA/DNA level with ligand (relative to sTRSVctl = 100) (log10 (% of sTRSVctl)); HEK293T; ligand: cyclic di-GMP (c-di-GMP-II aptamer); ligand concentration (+) RNA-Seq: 1 mM; higher = less ribozyme self-cleavage, higher mRNA level; settings: reporter: mCherry (pCS4076), ligand present: yes
Method in brief: as §1

Variant	normalized RNA/DNA level without ligand (log10) (cyclic di-GMP [1])	normalized RNA/DNA level with ligand (log10) (cyclic di-GMP [2])
GCUGUCACCGAGAAACUGUGAAGUAUAUCUUAAACCUGGGCACUUAAAAGAUAUAUGGAGUUAGUAGUGCAACCUGCUCGGUCUGAUGAGUCCGGUGCCGGACGAAACAGC	1.82 ± 0.077	1.95 ± 0.15
GCUGUCACCGAGAAACUGUGAAGUAUAUCUUAAACCUGGGCACUUAAAAGAUAUAUGGAGUUAGUAGUGCAACCUGCUCGGUCUGAUGAGUCCGGUGCAGGACGAAACAGC	1.78 ± 0.12	1.91 ± 0.13
GCUGUCACCGAGAAACUGUGAAGUAUAUCUUAAACCUGGGCACUUAAAAGAUAUAUGGAGUUAGUAGUGCAACCUGCUCGGUCUGAUGAGUCCAGUGAGGGACGAAACAGC	1.52 ± 0.11	1.67 ± 0.13
GCUGUCACCGAGAAACUGUGAAGUAUAUCUUAAACCUGGGCACUUAAAAGAUAUAUGGAGUUAGUAGUGCAACCUGCUCGGUCUGAUGAGUCCAGUGAUGGACGAAACAGC	1.671 ± 0.003	1.81 ± 0.12
GCUGUCACCGAGAAACUGUGAAGUAUAUCUUAAACCUGGGCACUUAAAAGAUAUAUGGAGUUAGUAGUGCAACCUGCUCGGUCUGAUGAGUCCGGUGAUGGACGAAACAGC	1.67 ± 0.041	1.76 ± 0.057
GCUGUCACCGAGAAACUGUGAAGUAUAUCUUAAACCUGGGCACUUAAAAGAUAUAUGGAGUUAGUAGUGCAACCUGCUCGGUCUGAUGAGUCCUGUGAGGGACGAAACAGC	1.7 ± 0.038	1.87 ± 0.07
GCUGUCACCGAGAAACUGUGAAGUAUAUCUUAAACCUGGGCACUUAAAAGAUAUAUGGAGUUAGUAGUGCAACCUGCUCGGUCUGAUGAGUCCUGUGCAGGACGAAACAGC	1.77 ± 0.02	1.87 ± 0.073
GCUGUCACCGAGAAACUGUGAAGUAUAUCUUAAACCUGGGCACUUAAAAGAUAUAUGGAGUUAGUAGUGCAACCUGCUCGGUCUGAUGAGUCCUGUGCGGGACGAAACAGC	1.804 ± 0.0083	1.93 ± 0.059
GCUGUCACCGAGAAACUGUGAAGUAUAUCUUAAACCUGGGCACUUAAAAGAUAUAUGGAGUUAGUAGUGCAACCUGCUCGGUCUGAUGAGUCCUGUGCCGGACGAAACAGC	1.85 ± 0.074	1.94 ± 0.14
GCUGUCACCGAGAAACUGUGAAGUAUAUCUUAAACCUGGGCACUUAAAAGAUAUAUGGAGUUAGUAGUGCAACCUGCUCGGUCUGAUGAGUCCUGUGCUGGACGAAACAGC	1.71 ± 0.071	1.87 ± 0.089
GCUGUCACCGAGAAACUGUGAAGUAUAUCUUAAACCUGGGCACUUAAAAGAUAUAUGGAGUUAGUAGUGCAACCUGCUCGGUCUGAUGAGUCCCGUGGGGGACGAAACAGC	1.62 ± 0.058	1.8 ± 0.073
GCUGUCACCGAGAAACUGUGAAGUAUAUCUUAAACCUGGGCACUUAAAAGAUAUAUGGAGUUAGUAGUGCAACCUGCUCGGUCUGAUGAGUCCCGUGGCGGACGAAACAGC	1.748 ± 0.0072	1.85 ± 0.15
GCUGUCACCGAGAAACUGUGAAGUAUAUCUUAAACCUGGGCACUUAAAAGAUAUAUGGAGUUAGUAGUGCAACCUGCUCGGUCUGAUGAGUCCCGUGGUGGACGAAACAGC	1.74 ± 0.021	1.87 ± 0.076
GCUGUCACCGAGAAACUGUGAAGUAUAUCUUAAACCUGGGCACUUAAAAGAUAUAUGGAGUUAGUAGUGCAACCUGCUCGGUCUGAUGAGUCCUGUGGCGGACGAAACAGC	1.742 ± 0.0053	1.89 ± 0.082
GCUGUCACCGAGAAACUGUGAAGUAUAUCUUAAACCUGGGCACUUAAAAGAUAUAUGGAGUUAGUAGUGCAACCUGCUCGGUCUGAUGAGUCCUGUGGUGGACGAAACAGC	1.667 ± 0.012	1.81 ± 0.065
GCUGUCACCGAGAAACUGUGAAGUAUAUCUUAAACCUGGGCACUUAAAAGAUAUAUGGAGUUAGUAGUGCAACCUGCUCGGUCUGAUGAGUCCUGUGGAGGACGAAACAGC	1.58 ± 0.067	1.76 ± 0.062
GCUGUCACCGAGAAACUGUGAAGUAUAUCUUAAACCUGGGCACUUAAAAGAUAUAUGGAGUUAGUAGUGCAACCUGCUCGGUCUGAUGAGUCCCGUGAGGGACGAAACAGC	1.7 ± 0.026	1.83 ± 0.05
GCUGUCACCGAGAAACUGUGAAGUAUAUCUUAAACCUGGGCACUUAAAAGAUAUAUGGAGUUAGUAGUGCAACCUGCUCGGUCUGAUGAGUCCCGUGCUGGACGAAACAGC	1.64 ± 0.05	1.81 ± 0.063
GCUGUCACCGAGAAACUGUGAAGUAUAUCUUAAACCUGGGCACUUAAAAGAUAUAUGGAGUUAGUAGUGCAACCUGCUCGGUCUGAUGAGUCCCGUGCCGGACGAAACAGC	1.75 ± 0.02	1.84 ± 0.093
GCUGUCACCGAGAAACUGUGAAGUAUAUCUUAAACCUGGGCACUUAAAAGAUAUAUGGAGUUAGUAGUGCAACCUGCUCGGUCUGAUGAGUCCAGUGCUGGACGAAACAGC	1.67 ± 0.043	1.82 ± 0.096
GCUGUCACCGAGAAACUGUGAAGUAUAUCUUAAACCUGGGCACUUAAAAGAUAUAUGGAGUUAGUAGUGCAACCUGCUCGGUCUGAUGAGUCCAGUGCGGGACGAAACAGC	1.7 ± 0.058	1.85 ± 0.095
GCUGUCACCGAGAAACUGUGAAGUAUAUCUUAAACCUGGGCACUUAAAAGAUAUAUGGAGUUAGUAGUGCAACCUGCUCGGUCUGAUGAGUCCGGUGGCGGACGAAACAGC	1.68 ± 0.03	1.83 ± 0.076
GCUGUCACCGAGAAACUGUGAAGUAUAUCUUAAACCUGGGCACUUAAAAGAUAUAUGGAGUUAGUAGUGCAACCUGCUCGGUCUGAUGAGUCCGGUGGAGGACGAAACAGC	1.55 ± 0.11	1.7 ± 0.065
GCUGUCACCGAGAAACUGUGAAGUAUAUCUUAAACCUGGGCACUUAAAAGAUAUAUGGAGUUAGUAGUGCAACCUGCUCGGUCUGAUGAGUCCAGUGGUGGACGAAACAGC	1.56 ± 0.089	1.759 ± 0.014
GCUGUCACCGAGAAACUGUGAAGUAUAUCUUAAACCUGGGCACUUAAAAGAUAUAUGGAGUUAGUAGUGCAACCUGCUCGGUCUGAUGAGUCCAGUGGAGGACGAAACAGC	1.44 ± 0.11	1.62 ± 0.086
GCUGUCACCGAGAAACUGUGAAGUAUAUCUUAAACCUGGGCACUUAAAAGAUAUAUGGAGUUAGUAGUGCAACCUGCUCGGUCUGAUGAGUCCAGUGGCGGACGAAACAGC	1.6 ± 0.079	1.79 ± 0.11
